Key:
Experiment in all cases: SEC
[1] = molecular target: PEDV 3CL^pro variant R4A (porcine epidemic diarrhea virus (FJZZ strain))
[2] = molecular target: PEDV 3CL^pro variant Q295A (porcine epidemic diarrhea virus (FJZZ strain))
[3] = molecular target: PEDV 3CL^pro variant S138A (porcine epidemic diarrhea virus (FJZZ strain))
[4] = molecular target: PEDV 3CL^pro variant R294A (porcine epidemic diarrhea virus (FJZZ strain))

In the case of PEDV 3CL^pro variant R4A (enzyme), the stoichiometry N [1] is reported as 2.

In the case of PEDV 3CL^pro variant Q295A (enzyme), the stoichiometry N [2] is reported as 2.

PEDV 3CL^pro variant S138A (enzyme) gave a stoichiometry N [3] of 2.

Substance PEDV 3CL^pro variant R294A (enzyme) has a stoichiometry N [4] of 2.

— PMC7111274
